Results reported in article PMC8625570 (2021).

Columns and labels:
Assay in all cases: mGppNHp-bound
RAC3 (aa 1-192) [1] = biological target: T1, RAC3 (aa 1-192) (human, UniProt P60763 1-192)
RAC1 (aa 1-179) [2] = biological target: T2, RAC1 (aa 1-179) (human, UniProt P63000 1-179)
CDC42 (aa 1-178) [3] = biological target: T3, CDC42 (aa 1-178) (human, UniProt P60953 1-178)
RHOG (aa 1-178) [4] = biological target: T4, RHOG (aa 1-178) (human, UniProt P84095 1-178)
RAC3 (aa 1-192) [5] = biological target: T1, RAC3 (aa 1-192); remark: listed apart in the source
RAC2 (aa 1-192) = RAC2 (aa 1-192) (human, UniProt P15153 1-192)
RAC1 (aa 1-179) [6] = biological target: T2, RAC1 (aa 1-179); remark: listed apart in the source
CDC42 (aa 1-178) [7] = biological target: T3, CDC42 (aa 1-178); remark: listed apart in the source
RHOG (aa 1-178) [8] = biological target: T4, RHOG (aa 1-178); remark: listed apart in the source
RAC1 M45E/N52E [9] = biological target: T5, RAC1 M45E/N52E (human, UniProt P63000 1-179, M45E | N52E)
RAC1 Q74D [10] = biological target: T6, RAC1 Q74D (human, UniProt P63000 1-179, Q74D)
[11] = biological target: T7, RAC1 V85D/S88D (so in the source); residue 88 of RAC1 is Ala by the legend of Figure 2) (human, UniProt P63000 1-179, V85D | S88D (Ala-88 in RAC1))
RAC1 T25K/N26D [12] = biological target: T8, RAC1 T25K/N26D (human, UniProt P63000 1-179, T25K | N26D)
CDC42 V85D/S88D [13] = biological target: T9, CDC42 V85D/S88D (human, UniProt P60953 1-178, V85D | S88D)
CDC42 T25K/N26D [14] = biological target: T10, CDC42 T25K/N26D (human, UniProt P60953 1-178, T25K | N26D)
[15] = biological target: T11, RHOA-to-RAC1 variant (RHOA K27T, D28N, E47M, E54N, D76Q) (human, UniProt P61586 1-181, K27T | D28N | E47M | E54N | D76Q)
[16] = biological target: T12, CDC42 M45E/N52E (so in the source); residue 52 of CDC42 is given as T52 in the discussion) (human, UniProt P60953 1-178, M45E | N52E (T52 in CDC42))
CDC42 Q74D [17] = biological target: T13, CDC42 Q74D (human, UniProt P60953 1-178, Q74D)
RAC1 M45E/N52E [18] = biological target: T5, RAC1 M45E/N52E; remark: listed apart in the source
RAC1 Q74D [19] = biological target: T6, RAC1 Q74D; remark: listed apart in the source
[20] = biological target: T7, RAC1 V85D/S88D (so in the source); residue 88 …; remark: listed apart in the source
RAC1 T25K/N26D [21] = biological target: T8, RAC1 T25K/N26D; remark: listed apart in the source
CDC42 V85D/S88D [22] = biological target: T9, CDC42 V85D/S88D; remark: listed apart in the source
CDC42 T25K/N26D [23] = biological target: T10, CDC42 T25K/N26D; remark: listed apart in the source
[24] = biological target: T11, RHOA-to-RAC1 variant (RHOA K27T, D28N, …); remark: listed apart in the source
[25] = biological target: T12, CDC42 M45E/N52E (so in the source); residue 52 …; remark: listed apart in the source
CDC42 Q74D [26] = biological target: T13, CDC42 Q74D; remark: listed apart in the source

T9 sequence (P60953 1-178 V85D/S88D): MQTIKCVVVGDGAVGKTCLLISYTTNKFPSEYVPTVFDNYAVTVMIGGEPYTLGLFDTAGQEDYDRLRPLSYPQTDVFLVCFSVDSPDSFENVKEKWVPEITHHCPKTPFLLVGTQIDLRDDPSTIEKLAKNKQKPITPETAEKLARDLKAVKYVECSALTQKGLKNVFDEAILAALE
T4 sequence (P84095 1-178): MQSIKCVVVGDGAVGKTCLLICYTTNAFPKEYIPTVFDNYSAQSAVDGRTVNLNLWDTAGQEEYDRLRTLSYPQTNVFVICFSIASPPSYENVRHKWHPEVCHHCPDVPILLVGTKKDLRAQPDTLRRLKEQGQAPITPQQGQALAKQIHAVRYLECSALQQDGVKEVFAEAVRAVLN
T3 sequence (P60953 1-178): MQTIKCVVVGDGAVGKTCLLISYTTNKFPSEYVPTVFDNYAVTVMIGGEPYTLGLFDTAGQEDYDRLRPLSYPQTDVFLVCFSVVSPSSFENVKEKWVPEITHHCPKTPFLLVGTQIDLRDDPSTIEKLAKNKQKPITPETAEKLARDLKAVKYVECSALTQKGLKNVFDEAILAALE
T12 sequence (P60953 other isoform, or with tags, fused parts or gaps M45E | N52E (T52 in CDC42) | M45E N52E): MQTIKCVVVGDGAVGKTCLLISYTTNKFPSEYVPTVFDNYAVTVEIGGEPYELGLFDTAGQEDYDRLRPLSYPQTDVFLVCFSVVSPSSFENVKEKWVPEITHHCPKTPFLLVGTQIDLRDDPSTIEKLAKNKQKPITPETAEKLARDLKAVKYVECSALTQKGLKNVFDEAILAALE
T10 sequence (P60953 1-178 T25K/N26D): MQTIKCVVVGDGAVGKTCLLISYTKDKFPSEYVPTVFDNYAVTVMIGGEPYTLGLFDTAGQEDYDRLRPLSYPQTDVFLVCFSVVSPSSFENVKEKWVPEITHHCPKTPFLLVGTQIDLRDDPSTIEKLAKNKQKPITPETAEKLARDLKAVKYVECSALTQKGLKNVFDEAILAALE
T13 sequence (P60953 1-178 Q74D): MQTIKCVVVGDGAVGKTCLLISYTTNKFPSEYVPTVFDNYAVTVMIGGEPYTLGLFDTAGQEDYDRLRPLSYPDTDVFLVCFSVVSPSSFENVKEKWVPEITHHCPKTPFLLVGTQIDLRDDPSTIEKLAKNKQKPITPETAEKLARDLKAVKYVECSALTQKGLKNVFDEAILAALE
T11 sequence (P61586 1-181 K27T/D28N/E47M/E54N/D76Q): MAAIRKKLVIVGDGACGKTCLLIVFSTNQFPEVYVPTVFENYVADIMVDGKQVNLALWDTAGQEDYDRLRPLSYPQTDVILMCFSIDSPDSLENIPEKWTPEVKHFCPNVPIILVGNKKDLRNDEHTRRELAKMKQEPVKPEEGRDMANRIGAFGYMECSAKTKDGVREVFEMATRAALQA

B1: IQGAP1^C794 (C-terminal half of human IQGAP1 with the GRD, RGCT and CT domains) (domain or fragment)
chain: DPPMVVVRKFVHLLDQSDQDFQEELDLMKMREEVITLIRSNQQLENDLNLMDIKIGLLVKNKITLQDVVSHSKKLTKKNKEQLSDMMMINKQKGGLKALSKEKREKLEAYQHLFYLLQTNPTYLAKLIFQMPQNKSTKFMDSVIFTLYNYASNQREEYLLLRLFKTALQEEIKSKVDQIQEIVTGNPTVIKMVVSFNRGARGQNALRQILAPVVKEIMDDKSLNIKTDPVDIYKSWVNQMESQTGEASKLPYDVTPEQALAHEEVKTRLDSSIRNMRAVTDKFLSAIVSSVDKIPYGMRFIAKVLKDSLHEKFPDAGEDELLKIIGNLLYYRYMNPAIVAPDAFDIIDLSAGGQLTTDQRRNLGSIAKMLQHAASNKMFLGDNAHLSIINEYLSQSYQKFRRFFQTACDVPELQDKFNVDEYSDLVTLTKPVIYISIGEIINTHTLLLDHQDAIAPEHNDPIHELLDDLGEVPTIESLIGESSGNLNDPNKEALAKTEVSLTLTNKFDVPGDENAEMDARTILLNTKRLIVDVIRFQPGETLTEILETPATSEQEAEHQRAMQRRAIRDAKTPDKMKKSKSVKEDSNLTLQEKKEKIQTGLKKLTELGTVDPKNKYQELINDIARDIRNQRRYRQRRKAELVKLQQTYAALNSKATFYGEQVDYYKSYIKTCLDNLASKGKVSKKPREMKGKKSKKISLKYTAARLHEKGVLLEIEDLQVNQFKNVIFEISPTEEVGDFEVKAKFMGVQMETFMLHYQDLLQLQYEGVAVMKLFDRAKVNVNLLIFLLNKKFYGK
Kd (RAC3 (aa 1-192) [1]): 450 nM | Kd (RAC1 (aa 1-179) [2]): 930 nM | Kd (CDC42 (aa 1-178) [3]): 290 nM | Kd (RHOG (aa 1-178) [4]): 490 nM | koff (RAC3 (aa 1-192) [5]): 0.69 s⁻¹ | koff (RAC2 (aa 1-192)): 0.08 s⁻¹ | koff (RAC1 (aa 1-179) [6]): 0.65 s⁻¹ | koff (CDC42 (aa 1-178) [7]): 0.39 s⁻¹ | koff (RHOG (aa 1-178) [8]): 0.56 s⁻¹ | koff (RAC1 M45E/N52E [9]): 1.4 s⁻¹ | koff (RAC1 Q74D [10]): 0.74 s⁻¹ | koff [11]: 2.84 s⁻¹ | koff (RAC1 T25K/N26D [12]): 2.01 s⁻¹ | koff (CDC42 V85D/S88D [13]): 0.88 s⁻¹ | koff (CDC42 T25K/N26D [14]): 0.48 s⁻¹ | koff [15]: 2.1 s⁻¹ | koff [16]: 0.95 s⁻¹ | koff (CDC42 Q74D [17]): 1.19 s⁻¹ | Kd (RAC1 M45E/N52E [18]): 8200 nM | Kd (RAC1 Q74D [19]): 6100 nM | Kd [20]: 10500 nM | Kd (RAC1 T25K/N26D [21]): 15300 nM | Kd (CDC42 V85D/S88D [22]): 1200 nM | Kd (CDC42 T25K/N26D [23]): 920 nM | Kd [24]: 1750 nM | Kd [25]: 1230 nM | Kd (CDC42 Q74D [26]): 1320 nM
